Measured values: US20150274807A1 (SUZHOU ALPHAMAB, published 2015)

B1: Fc protein K392D/K409D/D399K (other)
chain: GSGGGDKTHTCPPCPAPELLGGPSVFLFPPKPKDTLMISRTPEVTCVVVDVSHENPEVKFNWYVDGVEVHNAKTKPREEQYNSTYRVVSVLTVLHQDWLNGKEYKCKVSNKALPAPIEKTISKAKGQPREPQVYTLPPSREEMTKNQVSLTCLVKGFYPSDIAVEWESNGQPENNYDTTPPVLKSDGSFFLYSDLTVDKSRWQQGNVFSCSVMHEALHNHYTQKSLSLSPGK
notes: Monomer chain; EU numbering is K392D/K409D/D399K; also called Fc-mix1; Fc of mutation combinations 1, 5 and 6

What was measured:
[1] = target: the molecule itself; test: co-transfection 1:1 in 293H, protein A pull-down, non-reducing SDS-PAGE densitometry; co-expressed with ScFv-Fc WT
Description: (§1) The expression vectors harbor 8 mutation combinations in step 3 were separately transfected with PEI into suspension adapted 293H cells (ATCC CRL-1573), the co-transfection ratio of plasmids pcDNA3.1-zeo-ScFv-Fc to pcMVβ-SP-Fc was 1:1, and after 3-4 days, cell culture supernatant was collected. Immuno precipitation was performed with protein A agarose resin, and the content of the homodimer proteins or antibodies (ScFv-Fc/ScFv-Fc and Fc/Fc) and the heterodimer protein or antibody (ScFv-Fc/Fc) was detected by SDS-PAGE under non-reducing conditions. Gel-Pro professional image analysis software (Media Cybernetics company) was used for analyzing the proportion of the homodimer proteins or antibodies (ScFv-Fc/ScFv-Fc and Fc/Fc) and the heterodimer protein or antibody (ScFv-Fc/Fc). […] In addition, when E357K/K370E/K392D/K409D/D399K (mutation combination 4) was introduced on Fc, the stability should be further investigated because of the appearance of Fc monomers (about 6%).

[2] = target: the molecule itself; test: co-transfection 1:1 in 293H, protein A pull-down, non-reducing SDS-PAGE densitometry; co-expressed with Fc K392D/K409D/D399K
Description: as §1

[3] = target: B1; test: co-transfection 1:1 in 293H, protein A pull-down, non-reducing SDS-PAGE densitometry
Description: as §1

proportion of ScFv-Fc/Fc heterodimer on SDS-PAGE [3] [%]	Binder	proportion of Fc homodimer on SDS-PAGE [1] [%]	proportion of ScFv-Fc homodimer on SDS-PAGE [2] [%]
	Fc protein E357K/K370E (other, Monomer chain; also called Fc of mutation combination 3) GSGGGDKTHTCPPCPAPELLGGPSVFLFPPKPKDTLMISRTPEVTCVVVDVSHENPEVKFNWYVDGVEVHNAKTKPREEQYNSTYRVVSVLTVLHQDWLNGKEYKCKVSNKALPAPIEKTISKAKGQPREPQVYTLPPSREKMTKNQVSLTCLVEGFYPSDIAVEWESNGQPENNYKTTPPVLDSDGSFFLYSKLTVDKSRWQQGNVFSCSVMHEALHNHYTQKSLSLSPGK	47.5	
	Fc protein K392D/D399K (other, Monomer chain; also called Fc of mutation combination 7) GSGGGDKTHTCPPCPAPELLGGPSVFLFPPKPKDTLMISRTPEVTCVVVDVSHENPEVKFNWYVDGVEVHNAKTKPREEQYNSTYRVVSVLTVLHQDWLNGKEYKCKVSNKALPAPIEKTISKAKGQPREPQVYTLPPSREEMTKNQVSLTCLVKGFYPSDIAVEWESNGQPENNYDTTPPVLKSDGSFFLYSKLTVDKSRWQQGNVFSCSVMHEALHNHYTQKSLSLSPGK	44.7	
	B1	51.3	
	Fc protein D399K/K409D (other, Monomer chain; also called Fc of mutation combination 8) GSGGGDKTHTCPPCPAPELLGGPSVFLFPPKPKDTLMISRTPEVTCVVVDVSHENPEVKFNWYVDGVEVHNAKTKPREEQYNSTYRVVSVLTVLHQDWLNGKEYKCKVSNKALPAPIEKTISKAKGQPREPQVYTLPPSREEMTKNQVSLTCLVKGFYPSDIAVEWESNGQPENNYKTTPPVLKSDGSFFLYSDLTVDKSRWQQGNVFSCSVMHEALHNHYTQKSLSLSPGK	43.4	
	Fc protein E356K/K439E (other, Monomer chain; also called Fc of mutation combination 2) GSGGGDKTHTCPPCPAPELLGGPSVFLFPPKPKDTLMISRTPEVTCVVVDVSHENPEVKFNWYVDGVEVHNAKTKPREEQYNSTYRVVSVLTVLHQDWLNGKEYKCKVSNKALPAPIEKTISKAKGQPREPQVYTLPPSRKEMTKNQVSLTCLVKGFYPSDIAVEWESNGQPENNYKTTPPVLDSDGSFFLYSKLTVDKSRWQQGNVFSCSVMHEALHNHYTQESLSLSPGK	41.1	
	Fc protein E357K/K370E/K392D/K409D/D399K (other, Monomer chain; also called Fc-mix13; Fc of mutation combination 4) GSGGGDKTHTCPPCPAPELLGGPSVFLFPPKPKDTLMISRTPEVTCVVVDVSHENPEVKFNWYVDGVEVHNAKTKPREEQYNSTYRVVSVLTVLHQDWLNGKEYKCKVSNKALPAPIEKTISKAKGQPREPQVYTLPPSREKMTKNQVSLTCLVEGFYPSDIAVEWESNGQPENNYDTTPPVLKSDGSFFLYSDLTVDKSRWQQGNVFSCSVMHEALHNHYTQKSLSLSPGK	28.7	
8.4	ScFv-Fc protein E356K/K439E (Fc fusion, Monomer chain; also called scFv-Fcmix1; ScFv-Fc of mutation combination 6) EVQLLESGGGVVQPGRSLRLSCIASGFTFSSYPMTWVRQAPGKGLEWVASISYDGSYKYKADSMKGRLTISRDNSKNTLYLEMNSLTAEDTAVYYCARTAFFNAYDFWGQGTLVTVSSASTKGPSVGGGGSGGGGSEIVMTQSPATLSVSPGERATLSCRASQSVRSNLAWYQQKPGQAPRLLIYAASTRATGIPARFSGSGSGTEFTLTISSLQSEDFAVYYCQQYNEWFRTSGQGTKVEIKRDKTHTCPPCPAPELLGGPSVFLFPPKPKDTLMISRTPEVTCVVVDVSHENPEVKFNWYVDGVEVHNAKTKPREEQYNSTYRVVSVLTVLHQDWLNGKEYKCKVSNKALPAPIEKTISKAKGQPREPQVYTLPPSRKEMTKNQVSLTCLVKGFYPSDIAVEWESNGQPENNYKTTPPVLDSDGSFFLYSKLTVDKSRWQQGNVFSCSVMHEALHNHYTQESLSLSPGK		31.2
5.9	ScFv-Fc protein E357K/K370E (Fc fusion, Monomer chain; also called ScFv-Fc of mutation combination 5) EVQLLESGGGVVQPGRSLRLSCIASGFTFSSYPMTWVRQAPGKGLEWVASISYDGSYKYKADSMKGRLTISRDNSKNTLYLEMNSLTAEDTAVYYCARTAFFNAYDFWGQGTLVTVSSASTKGPSVGGGGSGGGGSEIVMTQSPATLSVSPGERATLSCRASQSVRSNLAWYQQKPGQAPRLLIYAASTRATGIPARFSGSGSGTEFTLTISSLQSEDFAVYYCQQYNEWFRTSGQGTKVEIKRDKTHTCPPCPAPELLGGPSVFLFPPKPKDTLMISRTPEVTCVVVDVSHENPEVKFNWYVDGVEVHNAKTKPREEQYNSTYRVVSVLTVLHQDWLNGKEYKCKVSNKALPAPIEKTISKAKGQPREPQVYTLPPSREKMTKNQVSLTCLVEGFYPSDIAVEWESNGQPENNYKTTPPVLDSDGSFFLYSKLTVDKSRWQQGNVFSCSVMHEALHNHYTQKSLSLSPGK		41.5
